Assay results: US11739333B2, “Regulation of gene expression by aptamer-modulated RNase p cleavage” (MeiraGTx UK II Limited, priority 2017, dated 2023)
Numbering of substitutions follows the chain as printed. “Also recorded” adds a separate entry of the source.

Tested on: luciferase target gene expression in HEK 293 cells (aptamer-modulated RNase P cleavage of mRNA)
Experiment: Firefly luciferase assay of transfected cells treated with or without aptamer ligand
Format: cell-based
Details: for induction fold of luciferase expression, guanosine-treated versus solvent control-treated cells: 500 μM guanosine vs 0.5% DMSO; for reduction in luciferase activity compared to control construct (Con8): absence of guanosine; for luciferase activity as % of control construct: presence of guanosine (500 μM)
Description: Firefly luciferase assay of cultured cells: 3.5×10^4 HEK 293 cells were plated in 96-well flat bottom plate the day before transfection. Plasmid DNA (500 ng) was added to a tube or a 96-well U-bottom plate. Separately, TransIT-293 reagent (Minis; 1.4 μL) was added to 50 μL opti-mem I media (Life Technologies) and allowed to sit for 5 minutes at room temperature (“RT”). Then, 50 μL of this diluted transfection reagent was added to the DNA, mixed, and incubated at RT for 20 min. Finally, 7 μL of this solution was added to a well of cells in a 96-well plate. 4 hours after transfection, medium containing transfection solution was replaced with fresh medium. 24 hours after media change, plates were removed from the incubator, and equilibrated to RT for several minutes on a lab bench, then aspirated. Glo-lysis buffer (Promega, 100 μL, RT) was added, and the plates allowed to remain at RT for at least 5 minutes. Then, the well contents were mixed by 50 μL trituration, and 20 μL of each sample was mixed with 20 μL of bright-glo reagent (Promega) that had been diluted to 10% in glo-lysis buffer. 96 wells were spaced on an opaque white 384-well plate. Following a 5-min incubation at RT, luminescence was measured using a Tecan machine with 500 mSec read time. The luciferase activity was expressed as mean arbitrary light unit (ALU)±S.D.
Plasmid constructs: oligonucleotide fragments containing mascRNA and guanine aptamer sequences (Mandal, M, et al., Cell 113, 577-586 (2003), incorporated herein by reference) were synthesized (IDT) and cloned into a luciferase (Luci) expression construct (Con8) in the 3′ UTR region using compatible restriction sites BamHI and XhoI. All the constructs were verified by DNA sequencing (Genewiz).
Firefly luciferase assay of cultured cells: cells were transfected as described in Example 1. Four hours after transfection, medium containing transfection solution was replaced by medium with either 0.5% DMSO as solvent control or 500 μM guanosine (Sigma) as aptamer ligand. Twenty-two to twenty-four hours after treatment, a luciferase assay was performed as described in Example 1.
Plasmid construction: a DNA fragment containing sequences for the guanine aptamer xpt-G and human arginine pre-tRNA (Nashimoto M. N. et al. Long 5′ leaders inhibit removal of a 3′ trailer from a precursor tRNA by mammalian tRNA 3′ processing endoribonuclease. Nucleic Acids Research, 1999; 27(13): 2770-2776) were synthesized (IDT). The synthesized DNA fragments were digested with BamHI and XhoI restriction enzymes and cloned into the Con8 construct digested with the same restriction enzymes. Construct sequences were verified by DNA sequencing (Genewiz).
Plasmid construction: a DNA fragment containing sequences for the adenine aptamer ydhl-A (M. Mandal and R. R. Breaker, Adenine riboswitches and gene activation by disruption of a transcription terminator. Nature Structural & Molecular Biology. 2004; 11: 29-35, incorporated herein by reference) or theophylline aptamer (G. R. Zimmerman, et al. Interlocking structural motifs mediate molecular discrimination by a theophylline-binding RNA. Nature Structural Biology. 1997; 4: 644-649, incorporated herein by reference), and mascRNA sequence were synthesized (IDT). The synthesized DNA fragments were digested with BamHI and XhoI restriction enzymes and cloned into Con8 digested with the same restriction enzymes. Construct sequences were verified by DNA sequencing (Genewiz).
Four hours after transfection, the media was aspirated, and new media with NaOH (1 mM) as solvent or 1 mM adenine (Calbiochem), or 3 mM theophylline (Sigma) was added. The induction fold was expressed as the quotient of luciferase activity obtained in the presence of aptamer ligand divided by the value obtained in the absence of the aptamer ligand. […]

B1: MG1: SEQ ID NO: 1; guanine aptamer immediately downstream of mascRNA in luciferase 3' UTR (nucleic acid)
chain: CCTCATAAAGGCCAAGAAGGGCGGAAAGATCGCCGTGTAAGGATCCAAGACGAGCTGTACAAGTAAAGCGGCCAATTCGGACAAAAACGAGACGCTGGTGGCTGGCACTCCTGGTTTCCAGGACGGGGTTCAAGTCCCTGCGGTGTCTATAATCGCGTGGATATGGCACGCAAGTTTCTACCGGGCACCGTAAATGTCCGACTAGACACCATCTAGAGTCGACCTGCAGGCATGCAAGCTTCAGCTGCTCGAGGGCCCAGATCTAATTCACCCCACCAGTGCAGGCTGCCTATCAG
Q: What does the source list for B1?
A: induction fold of luciferase expression, guanosine-treated versus solvent control-treated cells: 2.1 fold; reduction in luciferase activity compared to control construct (Con8): 32%; luciferase activity as % of Luci control construct (absence of guanosine (DMSO solvent control)): about 68%; luciferase activity as % of control construct: 100%

B2: GM1: SEQ ID NO: 2; guanine aptamer upstream of mascRNA, 7-nucleotide leader in effector region stem (nucleic acid)
chain: CCTCATAAAGGCCAAGAAGGGCGGAAAGATCGCCGTGTAAGGATCCAAGACGAGCTGTACAAGTAAAGCGGCCGTAATGTATAATCGCGTGGATATGGCACGCAAGTTTCTACCGGGCACCGTAAATGTCCGACTACATTACGACGCTGGTGGCTGGCACTCCTGGTTTCCAGGACGGGGTTCAAGTCCCTGCGGTGTCTTTGCTTGGATCGGCCGCGACTCTAGAGTCGACCTGCAGGCATGCAAGCTTCAGCTGCTCGAGGGCCCAGATCTAATTCACCCCACCAGTGCAGGCTGCCTATCAG
Q: With B2 as the molecule, how does the “induction fold of luciferase expression, guanosine-treated versus solvent control-treated cells” value read?
A: Its value is 2.9 fold.

Q: And the “reduction in luciferase activity compared to control construct (Con8)” value?
A: Its value is 52%.

Q: What about the “luciferase activity as % of control construct” value of the same molecule?
A: Its value is about 100%.

B3: GM2: SEQ ID NO: 3; guanine aptamer upstream of mascRNA, 6-nucleotide leader in effector region stem (nucleic acid)
chain: CCTCATAAAGGCCAAGAAGGGCGGAAAGATCGCCGTGTAAGGATCCAAGACGAGCTGTACAAGTAAAGCGGCCCGATCATATAATCGCGTGGATATGGCACGCAAGTTTCTACCGGGCACCGTAAATGTCCGACTATGGTCGACGCTGGTGGCTGGCACTCCTGGTTTCCAGGACGGGGTTCAAGTCCCTGCGGTGTCTTTGCTTGGATCGGCCGCGACTCTAGAGTCGACCTGCAGGCATGCAAGCTTCAGCTGCTCGAGGGCCCAGATCTAATTCACCCCACCAGTGCAGGCTGCCTATCAG
Q: Which results are given for B3?
A: induction fold of luciferase expression, guanosine-treated versus solvent control-treated cells: 1.9 fold; reduction in luciferase activity compared to control construct (Con8): 40%

B4: GM3: SEQ ID NO: 4; 5-nt sequence between effector region stem and acceptor stem of mascRNA (nucleic acid)
chain: CCTCATAAAGGCCAAGAAGGGCGGAAAGATCGCCGTGTAAGGATCCAAGACGAGCTGTACAAGTAAAGCGGCCGGACAAAATAATCGCGTGGATATGGCACGCAAGTTTCTACCGGGCACCGTAAATGTCCGACTTTTGTCCAACGAGACGCTGGTGGCTGGCACTCCTGGTTTCCAGGACGGGGTTCAAGTCCCTGCGGTGTCTTTGCTTGGATCGGCCGCGACTCTAGAGTCGACCTGCAGGCATGCAAGCTTCAGCTGCTCGAGGGCCCAGATCTAATTCACCCCACCAGTGCAGGCTGCCTATCAG
Q: For B4, which “luciferase expression upon guanosine treatment” value (guanosine treatment) is on record?
A: Its value is “no increase in luciferase expression; also recorded: does not regulate luciferase gene expression”.

B5: GM4: SEQ ID NO: 5; GM1 with CGGC upstream of the effector region mutated to AAGA (nucleic acid)
chain: B2 chain with C69A, G70A, C72A
Q: B5 was tested. Which “basal level luciferase activity” value (absence of guanine) did it give?
A: The value was “lower level of luciferase activity than GM1”.

B6: GM4_2C: SEQ ID NO: 6; two copies of GM4 inserted in tandem in the 3' UTR (nucleic acid)
chain: CCTCATAAAGGCCAAGAAGGGCGGAAAGATCGCCGTGTAAGGATCCAAGACGAGCTGTACAAGTAAAGAAGACGTAATGTATAATCGCGTGGATATGGCACGCAAGTTTCTACCGGGCACCGTAAATGTCCGACTACATTACGACGCTGGTGGCTGGCACTCCTGGTTTCCAGGACGGGGTTCAAGTCCCTGCGGTGTCTTTGCTTGGATCGGCCGCGACTCTAGAGTCGACCTGCAGGCATGCAAGCTTCAGAAGTAAAGAAGACGTAATGTATAATCGCGTGGATATGGCACGCAAGTTTCTACCGGGCACCGTAAATGTCCGACTACATTACGACGCTGGTGGCTGGCACTCCTGGTTTCCAGGACGGGGTTCAAGTCCCTGCGGTGTCTTTGCTTGGATCGGCCGCGACTCTAGAGTCGACCTGCAGGCATGCAAGCTTCAGCTGCTCGAGGGCCCAGATCTAATTCACCCCACCAGTGCAGGCTGCCTATCAG
Q: Which “basal level luciferase expression as % of control construct Con8” value (absence of guanine) does the source give for B6 here?
A: The value was 18%.

Q: And the “induction fold of luciferase, with guanine versus without guanine” value (guanine treatment)?
A: Its value is 3.95 fold.

Q: What about the “induced luciferase expression as % of Con8” value (presence of guanine treatment) of the same molecule?
A: Its value is 51%.

B7: GM5: SEQ ID NO: 7; zero nucleotides between effector region stem and mascRNA acceptor stem (nucleic acid)
chain: CCTCATAAAGGCCAAGAAGGGCGGAAAGATCGCCGTGTAAGGATCCAAGACGAGCTGTACAAGTAAAGAAGAGCTAATGTATAATCGCGTGGATATGGCACGCAAGTTTCTACCGGGCACCGTAAATGTCCGACTACATTAGCGACGCTGGTGGCTGGCACTCCTGGTTTCCAGGACGGGGTTCAAGTCCCTGCGGTGTCTTTGCTTGGATCGGCCGCGACTCTAGAGTCGACCTGCAGGCATGCAAGCTTCAGCTGCTCGAGGGCCCAGATCTAATTCACCCCACCAGTGCAGGCTGCCTATCAG
Q: B7 was tested. Which “basal level luciferase activity” value (absence of guanine) did it give?
A: Its value is “lower level of luciferase activity”.

B8: GM6: SEQ ID NO: 8; 1 nucleotide between effector region stem and mascRNA acceptor stem (nucleic acid)
chain: CCTCATAAAGGCCAAGAAGGGCGGAAAGATCGCCGTGTAAGGATCCAAGACGAGCTGTACAAGTAAAGAAGAGCTAATGTATAATCGCGTGGATATGGCACGCAAGTTTCTACCGGGCACCGTAAATGTCCGACTACATTAGCAGACGCTGGTGGCTGGCACTCCTGGTTTCCAGGACGGGGTTCAAGTCCCTGCGGTGTCTTTGCTTGGATCGGCCGCGACTCTAGAGTCGACCTGCAGGCATGCAAGCTTCAGCTGCTCGAGGGCCCAGATCTAATTCACCCCACCAGTGCAGGCTGCCTATCAG
Q: With B8 as the molecule, how does the “luciferase expression in response to guanine treatment” value (guanine treatment) read?
A: Its value is “upregulate luciferase expression”.

B9: GM7: SEQ ID NO: 9; 2 nucleotides between effector region stem and mascRNA acceptor stem (nucleic acid)
chain: CCTCATAAAGGCCAAGAAGGGCGGAAAGATCGCCGTGTAAGGATCCAAGACGAGCTGTACAAGTAAAGAAGAGCTAATGTATAATCGCGTGGATATGGCACGCAAGTTTCTACCGGGCACCGTAAATGTCCGACTACATTAGCGAGACGCTGGTGGCTGGCACTCCTGGTTTCCAGGACGGGGTTCAAGTCCCTGCGGTGTCTTTGCTTGGATCGGCCGCGACTCTAGAGTCGACCTGCAGGCATGCAAGCTTCAGCTGCTCGAGGGCCCAGATCTAATTCACCCCACCAGTGCAGGCTGCCTATCAG
Q: How did the “luciferase expression in response to guanine treatment” value (guanine treatment) turn out when B9 was run?
A: Its value is “upregulate luciferase expression”.
